According to paper PMC10039853, “Increasing the melting temperature of VHH with the in silico free energy score” (Scientific Reports, 2023):

Assays:
hen egg lysozyme [1] = target: T1, hen egg lysozyme (Gallus gallus (hen egg white), UniProt P00698); experiment: SPR; Biacore T200; lysozyme immobilised on Sensor Chip CM5 by amine coupling to 200 RU; VHH injected 300 s, dissociation 600 s; running buffer PBST (PBS, 0.005% Tween 20); duplicate; 1:1 binding model; conditions: both partners purified
T1 construct: hen egg lysozyme (HEL), antigen of VHH D3-L11; also in the complex structure PDB 6JB8; also called HEL; antigen lysozyme; source: bought: Sigma-Aldrich, Cat No. L6876 (named for the ELISA)
T1 sequence (P00698 19-147): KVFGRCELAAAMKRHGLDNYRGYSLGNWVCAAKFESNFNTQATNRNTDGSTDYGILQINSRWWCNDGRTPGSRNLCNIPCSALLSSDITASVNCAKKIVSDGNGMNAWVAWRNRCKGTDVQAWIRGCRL

hen egg lysozyme [2] = target: T2, hen egg lysozyme (Gallus gallus (hen egg white), UniProt P00698); experiment: SPR; Biacore T200; lysozyme immobilised on Sensor Chip CM5 by amine coupling (200 RU); VHH injected 300 s, dissociation 600 s in PBST (PBS, 0.005% Tween 20); 1:1 binding model; duplicate; conditions: both partners purified
T2 construct: hen egg lysozyme (HEL), the antigen of D3-L11; also in PDB 6JB8; The supplier is named for the ELISA only; also called HEL; antigen lysozyme; source: bought: Sigma-Aldrich, Cat No. L6876
T2 sequence (P00698 19-147): as above

Binder	fold decrease in affinity (KD) against wild type (hen egg lysozyme [1])	Kd (hen egg lysozyme [2])
D3-L11 A79C (VHH, as the VHH chain of m2 (D3-L11, PDB 6JB8) with the stated substitution; Second-round mutant; same construct as m2; also called C mutant; source: ExpiCHO, transient transfection, purified from supernatant (His Mag Sepharose excel); not shown: His6 (after a SAG tripeptide linker), C-terminal, kept) VHH: DVQLVESGGGSVQAGGSLRLSCAASGSTDSIEYMTWFRQAPGKAREGVAALYTHTGNTYYTDSVKGRFTISQDKAKNMCYLRMDSVKSEDTAIYTCGATRKYVPVRFALDQSSYDYWGQGTQVTVSS	< 2 fold	–
D3-L11 A79H (VHH, as the VHH chain of Sm1 (D3-L11 wild type, PDB 6JB8) with A79H; SAG tripeptide linker before the C-terminal 6xHis tag; source: ExpiCHO, transient transfection, purified from supernatant (His Mag Sepharose excel); not shown: His6, C-terminal, kept) VHH: DVQLVESGGGSVQAGGSLRLSCAASGSTDSIEYMTWFRQAPGKAREGVAALYTHTGNTYYTDSVKGRFTISQDKAKNMHYLRMDSVKSEDTAIYTCGATRKYVPVRFALDQSSYDYWGQGTQVTVSS	–	0.0231 nM
D3-L11 A79Y (VHH, as the VHH chain of m2 (D3-L11, PDB 6JB8) with the stated substitution; Second-round mutant; same construct as m2; also called Y mutant; source: ExpiCHO, transient transfection, purified from supernatant (His Mag Sepharose excel); not shown: His6 (after a SAG tripeptide linker), C-terminal, kept) VHH: DVQLVESGGGSVQAGGSLRLSCAASGSTDSIEYMTWFRQAPGKAREGVAALYTHTGNTYYTDSVKGRFTISQDKAKNMYYLRMDSVKSEDTAIYTCGATRKYVPVRFALDQSSYDYWGQGTQVTVSS	< 2 fold	–
D3-L11 A79R (VHH, as the VHH chain of Sm1 (D3-L11 wild type, PDB 6JB8) with A79R; SAG tripeptide linker before the C-terminal 6xHis tag; source: ExpiCHO, transient transfection, purified from supernatant (His Mag Sepharose excel); not shown: His6, C-terminal, kept) VHH: DVQLVESGGGSVQAGGSLRLSCAASGSTDSIEYMTWFRQAPGKAREGVAALYTHTGNTYYTDSVKGRFTISQDKAKNMRYLRMDSVKSEDTAIYTCGATRKYVPVRFALDQSSYDYWGQGTQVTVSS	–	0.026 ± 0.0001 nM
D3-L11 G26I (VHH, as the VHH chain of Sm1 (D3-L11 wild type, PDB 6JB8) with G26I; SAG tripeptide linker before the C-terminal 6xHis tag; source: ExpiCHO, transient transfection, purified from supernatant (His Mag Sepharose excel); not shown: His6, C-terminal, kept) VHH: DVQLVESGGGSVQAGGSLRLSCAASISTDSIEYMTWFRQAPGKAREGVAALYTHTGNTYYTDSVKGRFTISQDKAKNMAYLRMDSVKSEDTAIYTCGATRKYVPVRFALDQSSYDYWGQGTQVTVSS	–	0.025 ± 0.0003 nM
D3-L11 A79W (VHH, as the VHH chain of Sm1 (D3-L11 wild type, PDB 6JB8) with A79W; SAG tripeptide linker before the C-terminal 6xHis tag; source: ExpiCHO, transient transfection, purified from supernatant (His Mag Sepharose excel); not shown: His6, C-terminal, kept) VHH: DVQLVESGGGSVQAGGSLRLSCAASGSTDSIEYMTWFRQAPGKAREGVAALYTHTGNTYYTDSVKGRFTISQDKAKNMWYLRMDSVKSEDTAIYTCGATRKYVPVRFALDQSSYDYWGQGTQVTVSS	–	0.0149 ± 0.0001 nM
D3-L11 A79Q (VHH, as the VHH chain of m2 (D3-L11, PDB 6JB8) with the stated substitution; Second-round mutant; same construct as m2; also called Q mutant; source: ExpiCHO, transient transfection, purified from supernatant (His Mag Sepharose excel); not shown: His6 (after a SAG tripeptide linker), C-terminal, kept) VHH: DVQLVESGGGSVQAGGSLRLSCAASGSTDSIEYMTWFRQAPGKAREGVAALYTHTGNTYYTDSVKGRFTISQDKAKNMQYLRMDSVKSEDTAIYTCGATRKYVPVRFALDQSSYDYWGQGTQVTVSS	< 10 fold	–
D3-L11 A24L (VHH, as the VHH chain of Sm1 (D3-L11 wild type, PDB 6JB8) with A24L; SAG tripeptide linker before the C-terminal 6xHis tag; source: ExpiCHO, transient transfection, purified from supernatant (His Mag Sepharose excel); not shown: His6, C-terminal, kept) VHH: DVQLVESGGGSVQAGGSLRLSCALSGSTDSIEYMTWFRQAPGKAREGVAALYTHTGNTYYTDSVKGRFTISQDKAKNMAYLRMDSVKSEDTAIYTCGATRKYVPVRFALDQSSYDYWGQGTQVTVSS	–	0.0436 ± 0.0013 nM

More lines, now with the values ahead:

fold decrease in affinity (KD) against wild type (hen egg lysozyme [1])	Kd (hen egg lysozyme [2])	Binder
–	0.0072 ± 3e-05 nM	D3-L11 A79Q (VHH, as the VHH chain of Sm1 (D3-L11 wild type, PDB 6JB8) with A79Q; SAG tripeptide linker before the C-terminal 6xHis tag; source: ExpiCHO, transient transfection, purified from supernatant (His Mag Sepharose excel); not shown: His6, C-terminal, kept) VHH: DVQLVESGGGSVQAGGSLRLSCAASGSTDSIEYMTWFRQAPGKAREGVAALYTHTGNTYYTDSVKGRFTISQDKAKNMQYLRMDSVKSEDTAIYTCGATRKYVPVRFALDQSSYDYWGQGTQVTVSS
–	0.0121 ± 0.0002 nM	D3-L11 A79F (VHH, as the VHH chain of Sm1 (D3-L11 wild type, PDB 6JB8) with A79F; SAG tripeptide linker before the C-terminal 6xHis tag; source: ExpiCHO, transient transfection, purified from supernatant (His Mag Sepharose excel); not shown: His6, C-terminal, kept) VHH: DVQLVESGGGSVQAGGSLRLSCAASGSTDSIEYMTWFRQAPGKAREGVAALYTHTGNTYYTDSVKGRFTISQDKAKNMFYLRMDSVKSEDTAIYTCGATRKYVPVRFALDQSSYDYWGQGTQVTVSS
–	0.006 ± 0.0004 nM	D3-L11 G97F (VHH, as the VHH chain of Sm1 (D3-L11 wild type, PDB 6JB8) with G97F; SAG tripeptide linker before the C-terminal 6xHis tag; source: ExpiCHO, transient transfection, purified from supernatant (His Mag Sepharose excel); not shown: His6, C-terminal, kept) VHH: DVQLVESGGGSVQAGGSLRLSCAASGSTDSIEYMTWFRQAPGKAREGVAALYTHTGNTYYTDSVKGRFTISQDKAKNMAYLRMDSVKSEDTAIYTCFATRKYVPVRFALDQSSYDYWGQGTQVTVSS
–	0.0117 nM	D3-L11 A79S (VHH, as the VHH chain of Sm1 (D3-L11 wild type, PDB 6JB8) with A79S; SAG tripeptide linker before the C-terminal 6xHis tag; source: ExpiCHO, transient transfection, purified from supernatant (His Mag Sepharose excel); not shown: His6, C-terminal, kept) VHH: DVQLVESGGGSVQAGGSLRLSCAASGSTDSIEYMTWFRQAPGKAREGVAALYTHTGNTYYTDSVKGRFTISQDKAKNMSYLRMDSVKSEDTAIYTCGATRKYVPVRFALDQSSYDYWGQGTQVTVSS
–	0.00492 ± 0.00012 nM	D3-L11 A79I (VHH, as the VHH chain of Sm1 (D3-L11 wild type, PDB 6JB8) with A79I; SAG tripeptide linker before the C-terminal 6xHis tag; source: ExpiCHO, transient transfection, purified from supernatant (His Mag Sepharose excel); not shown: His6, C-terminal, kept) VHH: DVQLVESGGGSVQAGGSLRLSCAASGSTDSIEYMTWFRQAPGKAREGVAALYTHTGNTYYTDSVKGRFTISQDKAKNMIYLRMDSVKSEDTAIYTCGATRKYVPVRFALDQSSYDYWGQGTQVTVSS
–	0.00374 ± 3e-05 nM	D3-L11 A79C (VHH, as the VHH chain of Sm1 (D3-L11 wild type, PDB 6JB8) with A79C; SAG tripeptide linker before the C-terminal 6xHis tag; source: ExpiCHO, transient transfection, purified from supernatant (His Mag Sepharose excel); not shown: His6, C-terminal, kept) VHH: DVQLVESGGGSVQAGGSLRLSCAASGSTDSIEYMTWFRQAPGKAREGVAALYTHTGNTYYTDSVKGRFTISQDKAKNMCYLRMDSVKSEDTAIYTCGATRKYVPVRFALDQSSYDYWGQGTQVTVSS
–	0.00366 ± 0.00013 nM	D3-L11 A79V (VHH, as the VHH chain of Sm1 (D3-L11 wild type, PDB 6JB8) with A79V; SAG tripeptide linker before the C-terminal 6xHis tag; source: ExpiCHO, transient transfection, purified from supernatant (His Mag Sepharose excel); not shown: His6, C-terminal, kept) VHH: DVQLVESGGGSVQAGGSLRLSCAASGSTDSIEYMTWFRQAPGKAREGVAALYTHTGNTYYTDSVKGRFTISQDKAKNMVYLRMDSVKSEDTAIYTCGATRKYVPVRFALDQSSYDYWGQGTQVTVSS
